Read-outs that look alike come from different tables or passages of the source. Blank lines part the entries; values can stand above or below the molecule they belong to.
How the values were obtained:
Experiment in all cases: SPR (Biacore 3000), G-CSFR amine-coupled to CM5 chip, 1:1 Langmuir fit
[1] = target: G-CSF receptor G-CSFR (R & D company, Item No. 381GR/CF) (UniProt Q99062)
[2] = target: T1, G-CSF receptor G-CSFR (R & D company, Item No. 381GR/CF) (UniProt Q99062 25-621, limits assumed)
T1 construct: Bought reagent, amine-coupled to a CM5 chip; also called the receptor
T1 sequence (looked up): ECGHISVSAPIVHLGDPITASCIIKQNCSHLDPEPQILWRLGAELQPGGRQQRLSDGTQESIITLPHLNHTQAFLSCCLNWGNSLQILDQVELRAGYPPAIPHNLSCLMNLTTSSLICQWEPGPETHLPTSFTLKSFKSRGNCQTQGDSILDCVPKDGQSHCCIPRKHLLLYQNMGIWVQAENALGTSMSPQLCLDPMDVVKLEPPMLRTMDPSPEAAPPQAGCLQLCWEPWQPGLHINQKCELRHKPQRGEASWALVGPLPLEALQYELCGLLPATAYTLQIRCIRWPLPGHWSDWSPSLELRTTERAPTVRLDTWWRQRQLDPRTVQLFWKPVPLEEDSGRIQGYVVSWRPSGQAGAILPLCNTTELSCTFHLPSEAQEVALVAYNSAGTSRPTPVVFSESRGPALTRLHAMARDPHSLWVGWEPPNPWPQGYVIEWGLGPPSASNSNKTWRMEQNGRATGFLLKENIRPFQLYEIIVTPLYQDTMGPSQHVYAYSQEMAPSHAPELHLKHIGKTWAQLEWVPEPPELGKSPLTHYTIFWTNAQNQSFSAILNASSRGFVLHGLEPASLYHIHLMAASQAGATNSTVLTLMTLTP
Protocol: (§1) The receptor G-CSFR (R & D company, Item No. 381GR/CF) was coupled to FC₄ cell of a CM5 chip by using an amine coupling method in Biacore® 3000 control software Wizard. HBS-P buffer (10 mM HEPES, 150 mM NaCl, and 0.005% (v/v) surfactant P20, pH 7.4) was used as the working buffer, and 1 mg/mL of G-CSFR was diluted with 10 mM NaAC (pH 4.5) to a final concentration of 20 μg/mL. A 1:1 mixture of 0.2 M EDC and 50 mM NHS was injected by flowing through the surface of the chip at a rate of 10 μL/min, G-CSFR solution was injected, then 1 M ethanolamine (pH 8.5) was injected for 7 min to block the activated chip surface.
(§2) rHSA/mG-CSF and G-CSF standards were quantitatively diluted with a HBS-P buffer, and a kinetic test was conducted following a kinetic analysis Wizard in Biacore® 3000 control software. All the samples were injected at the flow rate of 30 μL/min, and the injection time of 3 min. After 5 min of disassociation, 50 mM NaOH, 1 M NaCL, and HBS-P buffer were respectively injected for 15 s and 60 s at a flow rate of 100 μL/min for regeneration. The obtained data was fitted using a 1:1 Langmuir binding model in Biacore 3000 analysis software, to obtain exact kinetic constants: […]

[3] = target: T1, G-CSF receptor G-CSFR (R & D company, …); remark: listed apart in the source
Protocol: as §1, §2

Kd [1]: 1.3 nM
Molecule: recombinant human serum albumin-granulocyte-colony stimulating factor fusion protein (rHSA/G-CSF) (ligand)

Kd [1]: 11.2 nM
Molecule: rHSA/G-CSF mutant L19I (from UniProt P09919 31-207) (ligand)

Kd [2]: 0.3 nM
Kd [3]: 0.3 nM
B1: human granulocyte-colony stimulating factor (G-CSF) (ligand)
chain: TPLGPASSLPQSFLLKCLEQVRKIQGDGAALQEKLCATYKLCHPEELVLLGHSLGIPWAPLSSCPSQALQLAGCLSQLHSGLFLYQGLLQALEGISPELGPTLDTLQLDVADFATTIWQQMEELGMAPALQPTQGAMPAFASAFQRRAGGVLVASHLQSFLEVSYRVLRHLAQP
notes: also called G-CSF standards

Reference: patent publication US20130164251A1 (JIANGSU T MAB BIOPHARMA, published 2013)
